According to paper PMC10036635, “FTD-tau S320F mutation stabilizes local structure and allosterically promotes amyloid motif-dependent aggregation” (Nature Communications, 2023):
Where a chain is given by its changes, count along the chain named. Numbers in names are those of the source.

B1: WT_(295-330) tau peptide (peptide, UniProt P10636-8 295-330, looked up)
peptide: Ac-DNIKHVPGGGSVQIVYKPVDLSKVTSKCGSLGNIHH-NH2
notes: numbers count on: 2N4R tau (P10636-8); source: synthetic peptide (Genscript, > 95% purity)
B2: S320F_(295-324) tau peptide (peptide, UniProt P10636-8 295-324, looked up)
peptide: DNIKHVPGGGSVQIVYKPVDLSKVTFKCGS
notes: numbers count on: 2N4R tau (P10636-8); probably synthesised, acetylated and amidated like the others
B3: WT_(306-324) tau peptide (peptide, UniProt P10636-8 306-324, looked up)
peptide: Ac-VQIVYKPVDLSKVTSKCGS-NH2
notes: as for B1
B4: S320F_(306-330) tau peptide (peptide, UniProt P10636-8 306-330, looked up)
peptide: Ac-VQIVYKPVDLSKVTFKCGSLGNIHH-NH2
notes: as for B1
B5: WT_(295-324) tau peptide (peptide, UniProt P10636-8 295-324, looked up)
peptide: B2 peptide with F26S
notes: as for B2
B6: S320V tau peptide (295-330) (peptide, UniProt P10636-8 295-330, looked up)
peptide: Ac-DNIKHVPGGGSVQIVYKPVDLSKVTVKCGSLGNIHH-NH2
notes: as for B1
B7: WT_(306-330) tau peptide (peptide, UniProt P10636-8 306-330, looked up)
peptide: Ac-VQIVYKPVDLSKVTSKCGSLGNIHH-NH2
notes: as for B1
B8: S320F_(295-330) tau peptide (peptide, UniProt P10636-8 295-330, looked up)
peptide: Ac-DNIKHVPGGGSVQIVYKPVDLSKVTFKCGSLGNIHH-NH2
notes: as for B1
B9: S320F_(306-324) tau peptide (peptide, UniProt P10636-8 306-324, looked up)
peptide: Ac-VQIVYKPVDLSKVTFKCGS-NH2
notes: as for B1
B10: S320I tau peptide (295-330) (peptide, UniProt P10636-8 295-330, looked up)
peptide: Ac-DNIKHVPGGGSVQIVYKPVDLSKVTIKCGSLGNIHH-NH2
notes: as for B1
B11: S320F_L325S_(295-330) tau peptide (peptide, UniProt P10636-8 295-330, looked up)
peptide: Ac-DNIKHVPGGGSVQIVYKPVDLSKVTFKCGSSGNIHH-NH2
notes: as for B1
B12: S320I_I328V tau peptide (295-330) (peptide, UniProt P10636-8 295-330, looked up)
peptide: Ac-DNIKHVPGGGSVQIVYKPVDLSKVTIKCGSLGNVHH-NH2
notes: as for B1
B13: S320F_I328S_(295-330) tau peptide (peptide, UniProt P10636-8 295-330, looked up)
peptide: Ac-DNIKHVPGGGSVQIVYKPVDLSKVTFKCGSLGNSHH-NH2
notes: as for B1
B14: L315S_S320F_(295-330) tau peptide (peptide, UniProt P10636-8 295-330, looked up)
peptide: Ac-DNIKHVPGGGSVQIVYKPVDSSKVTFKCGSLGNIHH-NH2
notes: as for B1
B15: P301S_I328S_(295-330) tau peptide (peptide, UniProt P10636-8 295-330, looked up)
peptide: Ac-DNIKHVSGGGSVQIVYKPVDLSKVTSKCGSLGNSHH-NH2
notes: as for B1
B16: P301S_(295-330) tau peptide (peptide, UniProt P10636-8 295-330, looked up)
peptide: Ac-DNIKHVSGGGSVQIVYKPVDLSKVTSKCGSLGNIHH-NH2
notes: as for B1
B17: S324F_(295-330) tau peptide (peptide, UniProt P10636-8 295-330, looked up)
peptide: Ac-DNIKHVPGGGSVQIVYKPVDLSKVTSKCGFLGNIHH-NH2
notes: as for B1

Target: the molecule itself
Assay: ThT fluorescence aggregation assay + negative-stain TEM; self-assembly of tau peptides at 200 µM; 1x PBS, 2 mM TCEP, pH 7, 25 µM ThT, 72 h; TEM of the endpoint

Binding result, binds:
B1
B2
B3
B4
B5
B6
B7
B8
B9
B10
B11
B12
B13
B14
B15
B16
B17
